Data from article doi:10.1101/2020.06.12.149468v2 (biorxiv, 2026).

T1: mouse NR4A3 ligand-binding domain (Mus musculus, UniProt Q9QZB6)
T1 sequence (Q9QZB6 395-624): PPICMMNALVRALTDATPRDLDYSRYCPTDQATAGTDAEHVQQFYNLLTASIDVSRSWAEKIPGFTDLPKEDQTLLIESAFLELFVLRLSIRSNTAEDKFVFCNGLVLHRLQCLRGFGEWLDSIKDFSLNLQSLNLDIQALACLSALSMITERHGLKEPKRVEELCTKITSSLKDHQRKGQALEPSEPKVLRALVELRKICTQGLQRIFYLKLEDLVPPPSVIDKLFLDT


Assays:
[1] = target: T1, mouse NR4A3 ligand-binding domain; test: isothermal titration calorimetry
[2] = test system: C[C@]12CCC(=O)C=C1CC[C@@H]1[C@@H]2[C@@H](O)C[C@@]2(C)[C@H]1CC[C@]2(O)C(=O)CO; test: purified protein; conditions: 50 mM phosphate pH 7.5, NADH
purified protein = substrate: C[C@]12CCC(=O)C=C1CC[C@@H]1[C@@H]2[C@@H](O)C[C@@]2(C)[C@H]1CC[C@]2(O)C(=O)CO; test: purified protein; conditions: 50 mM phosphate pH 7.5, NADH; remark: listed apart in the source

| Molecule | Km [2] [µM] | kcat [2] [s⁻¹] | other results |
| --- | --- | --- | --- |
| C[C@]12CCC(=O)C=C1CC[C@@H]1[C@@H]2[C@@H](O)C[C@@]2(C)[C@H]1CC[C@]2(O)[C@@H](O)CO [20α-dihydrocortisol] |  |  | Kd [1]: 21.9 ± 2.6 µM |
| CCCCC[C@H](O)/C=C/[C@H]1C=CC(=O)[C@@H]1C/C=C\CCCC(=O)O [PGA2] |  |  | Kd [1]: 66.6 ± 17.4 µM |
| DesC ([Clostridium] scindens ATCC 35704; H50A) | 23.99 ± 0.26 | 0.208 ± 0.0148 |  |
| DesC ([Clostridium] scindens ATCC 35704; S47T) | 77.78 ± 1.78 | 0.011 ± 0.00067 |  |
| DesC ([Clostridium] scindens ATCC 35704; Y101R) | 628.65 ± 29.96 | 0.0295 ± 0.005 |  |
| DesC ([Clostridium] scindens ATCC 35704; Y124R) | 61.01 ± 2.71 | 0.134 ± 0.00233 |  |
| DesC ([Clostridium] scindens ATCC 35704) (protein) MRQLFVTSIRDFEKNTMGTVDMMEAPMPEPKDEEIRIKVVYASICGSDTHILTGNLGEMESTTRSMLPMSFGHELSGVIDKVGSTAEKMGFKVGQKVVANYAKYCGCCENCREGKVNLCSNMGYRMNGFSEYAVYHMSQIFPIPDDADLKDYALVEPLTVALSSAEQAKISYGKSVAIMGAGGLGMMLVQLARLAGASTITVFDIVPEKLELALENGADYALNSAEEGVAERAIELAGGRYDCVLEGTGATAAAKLGLQLLARDGDAVYFAMYGKDPILPVNLQSDLYWDQKHIHGMIQGAWQFPKSIRMIPRMDFSKIIQKEHTLTNYKQAFEDLYSKKYAKIVIKMDE |  |  | Km (purified protein): 11.62 ± 1.02 µM; kcat (purified protein): 1.538 ± 0.125 s⁻¹ |
